# Reference: the Human Domainome abundance scans (Beltran et al. 2025)
# ± gives the uncertainty stated by the source.
# B1: Tyrosine-protein kinase BTK, residues 215 to 273; numbered along this chain, Q06187 (parent)
# chain: ELKKVVALYDYMPMNANDLQLRKGDEYFILEESNLPWWRARDKNGQEGYIPSNYVTEAE
# Variants of: B1
# Assay: abundance fitness (aPCA) (normalised: wild type 0, dead -1); higher = more abundant; growth selection in yeast, the domain comes from the species named
# Conditions: Homo sapiens
row,Variant,abundance fitness
1,V5T,-0.323 ± 0.048
2,L19P,-0.515 ± 0.055
3,V6H,-0.154 ± 0.033
4,L21H,-0.761 ± 0.19
5,Q20I,-0.084 ± 0.055
6,E1C,-0.252 ± 0.16
7,V55W,-0.784 ± 0.069
8,E59F,-0.072 ± 0.1
9,K3G,-0.227 ± 0.042
10,D25G,-0.073 ± 0.037
11,R39S,-0.089 ± 0.039
12,V6E,-0.135 ± 0.041
13,A40N,-0.981 ± 0.14
14,M12P,-0.008 ± 0.048
15,A40R,-0.825 ± 0.044
16,F28Q,-0.069 ± 0.079
17,G48Q,-0.845 ± 0.075
18,L8A,-0.124 ± 0.031
19,K43V,-0.001 ± 0.037
20,I50K,-1.02 ± 0.15
21,I29P,-0.483 ± 0.05
22,E47Y,-0.268 ± 0.057
23,L21G,-1.06 ± 0.073
24,A40P,-1.16 ± 0.14

row,Variant,abundance fitness
1,D42S,-0.07 ± 0.039
2,N17D,-0.011 ± 0.067
3,L2H,-0.167 ± 0.12
4,R39L,-0.062 ± 0.038
5,L35W,-0.015 ± 0.043
6,R41L,-0.072 ± 0.036
7,T56G,0.08 ± 0.055
8,A16R,-0.055 ± 0.028
9,I29R,-0.436 ± 0.037
10,R22L,-0.002 ± 0.034
11,I29N,-0.698 ± 0.1
12,N44K,0.07 ± 0.082
13,K3S,-0.135 ± 0.044
14,Y27K,-0.771 ± 0.062
15,V55A,-0.32 ± 0.05
16,D25N,-0.074 ± 0.057
17,N34H,-0.066 ± 0.076
18,W38P,-0.038 ± 0.043
19,L30F,-0.038 ± 0.061
20,K43S,-0.016 ± 0.043
21,K4S,-0.1 ± 0.043
22,M12L,0.016 ± 0.032
23,M12Y,-0.018 ± 0.069
24,E31F,-0.005 ± 0.047

row,Variant,abundance fitness
1,E59S,0.067 ± 0.053
2,K4W,-0.334 ± 0.047
3,Y9K,0.073 ± 0.045
4,N15W,-0.14 ± 0.04
5,D18K,-0.048 ± 0.044
6,R39G,-0.36 ± 0.036
7,W37S,-0.017 ± 0.036
8,K3A,-0.225 ± 0.053
9,L2T,-0.161 ± 0.074
10,F28V,-0.009 ± 0.035
11,V55C,-0.083 ± 0.048
12,V6S,-0.19 ± 0.026
13,N15E,-0.011 ± 0.037
14,N34M,0.014 ± 0.059
15,K3I,-0.257 ± 0.054
16,A40G,-0.047 ± 0.035
17,P13L,-0.734 ± 0.048
18,R41D,-1.08 ± 0.2
19,Y49M,0.023 ± 0.047
20,Y27P,-0.624 ± 0.07
21,Q20N,-0.152 ± 0.065
22,K23I,-0.207 ± 0.13
23,A16L,-0.083 ± 0.027
24,Q20D,-0.168 ± 0.077

row,Variant,abundance fitness
1,L8K,-0.003 ± 0.052
2,V5C,-0.213 ± 0.043
3,S52V,-0.023 ± 0.044
4,L8R,-0.017 ± 0.028
5,L19M,-0.105 ± 0.041
6,K23E,-0.058 ± 0.046
7,L2W,-0.088 ± 0.042
8,Y54M,0.035 ± 0.066
9,N15L,0.004 ± 0.03
10,K4P,-0.15 ± 0.066
11,L19A,-0.796 ± 0.056
12,L2K,-0.095 ± 0.08
13,S33E,-0.038 ± 0.062
14,M12F,-0.062 ± 0.068
15,N34A,0.026 ± 0.044
16,R39W,-0.042 ± 0.046
17,Q46F,-0.028 ± 0.06
18,W38L,-0.005 ± 0.029
19,N53L,-0.099 ± 0.037
20,Y9D,-0.007 ± 0.061
21,V6I,-0.028 ± 0.027
22,A40C,-0.121 ± 0.041
23,N17F,-0.029 ± 0.056
24,S33Q,0.016 ± 0.069

row,Variant,abundance fitness
1,S33Y,-0.065 ± 0.059
2,G48H,-0.856 ± 0.13
3,K4V,-0.079 ± 0.044
4,F28Y,-0.068 ± 0.063
5,Q46S,-0.065 ± 0.043
6,W37A,-0.03 ± 0.047
7,P36T,-0.1 ± 0.058
8,G24C,-0.472 ± 0.087
9,Y54I,-0.228 ± 0.075
10,N53M,-0.079 ± 0.048
11,P36D,-0.013 ± 0.065
12,N44G,0.017 ± 0.046
13,Y49P,-0.374 ± 0.054
14,S33R,-0.07 ± 0.033
15,L2E,-0.126 ± 0.06
16,F28N,-0.077 ± 0.069
17,P13G,-0.068 ± 0.041
18,A58F,-0.016 ± 0.073
19,N34V,0.065 ± 0.033
20,A58R,-0.03 ± 0.041
21,N17V,-0.068 ± 0.031
22,M12V,-0.022 ± 0.039
23,D10F,-0.758 ± 0.24
24,R39C,-0.181 ± 0.054

row,Variant,abundance fitness
1,D18V,-0.061 ± 0.038
2,Q20E,-0.001 ± 0.059
3,R41V,-0.132 ± 0.046
4,P51D,-0.196 ± 0.13
5,R41N,-0.674 ± 0.12
6,A16C,-0.063 ± 0.054
7,G45C,-0.162 ± 0.064
8,Q20S,-0.007 ± 0.042
9,Y11I,-0.245 ± 0.05
10,E26T,0.011 ± 0.052
11,E59T,-0.012 ± 0.083
12,K4E,-0.135 ± 0.054
13,I29Q,-0.624 ± 0.07
14,S52N,-0.026 ± 0.072
15,I29W,-0.855 ± 0.067
16,D18H,0.146 ± 0.065
17,R39E,-0.199 ± 0.046
18,L30P,-0.365 ± 0.052
19,D18E,0.05 ± 0.039
20,E32P,-0.007 ± 0.066
21,V6C,-0.103 ± 0.03
22,N34Q,0.118 ± 0.058
23,E32T,-0.013 ± 0.072
24,W37M,0.006 ± 0.044

row,Variant,abundance fitness
1,Y49T,-0.019 ± 0.05
2,R22E,-0.041 ± 0.054
3,E1H,-0.174 ± 0.11
4,M12I,0.036 ± 0.06
5,D18S,-0.051 ± 0.036
6,R41Y,-0.234 ± 0.11
7,N15D,-0.018 ± 0.049
8,L30A,-0.12 ± 0.05
9,Y54W,-0.074 ± 0.06
10,E26I,-0.013 ± 0.051
11,P13K,-0.119 ± 0.066
12,S52E,-0.065 ± 0.066
13,D18F,-0.04 ± 0.067
14,E59Y,-0.116 ± 0.097
15,G45N,0.008 ± 0.093
16,G45A,-0.073 ± 0.04
17,Y27D,-0.692 ± 0.11
18,I29D,-0.704 ± 0.11
19,L35E,-0.022 ± 0.065
20,P13W,-0.778 ± 0.073
21,D42H,-0.321 ± 0.075
22,P13D,-0.458 ± 0.095
23,F28L,-0.004 ± 0.038
